Tests used:
[1] = biological target: C9 TMH-1 lock mutant (C9_(TMH-1 lock), F262C V405C) (human) (UniProt P02748); experiment: SDS-PAGE of SDS-stable polymeric-C9, in-gel Cy5 fluorescence; as a3 but 20 nM Cy5-labelled C9 incubated with the C5b-8 labelled bacteria in 10 mM DTT
[2] = biological target: C9 TMH-1 lock mutant (C9_(TMH-1 lock), F262C V405C) (human) (UniProt P02748)
[3] = biological target: C9 TMH-1 lock mutant (C9_(TMH-1 lock), F262C V405C) (human) (UniProt P02748); remark: listed apart in the source
[4] = biological target: C5b-8 (MAC precursor of C5b, C6, C7 and C8) assembled on E. coli (human) (UniProt P01031); experiment: flow cytometry on cells; as a1 but Cy5-labelled C9 added with 10 mM DTT (the methods give 20 nM C8 added 15 min before C9 at RT)
[5] = biological target: C5b-8 (MAC precursor of C5b, C6, C7 and C8) assembled on E. coli (human) (UniProt P01031); experiment: flow cytometry on cells; complement-resistant E. coli that express LPS O-Ag (552059.1, 552060.1, 567705.1, CGSC7740 wbbL+) in 3% C9-depleted serum with 25 nM Cy5-labelled C9 (up to 10-fold more on 552059.1) for 30 min at 37 C; MFI
[6] = biological target: C5b-8 (MAC precursor of C5b, C6, C7 and C8) assembled on E. coli (human) (UniProt P01031); experiment: flow cytometry on cells; complement-sensitive E. coli (MG1655, BW25113, MC1061, 547563.1, CGSC7740 wildtype) in 3% C9-depleted serum with 25 nM Cy5-labelled C9 for 30 min at 37 C; Syto9 trigger; MFI
[7] = biological target: C5b-8 (MAC precursor of C5b, C6, C7 and C8) assembled on E. coli (human) (UniProt P01031); experiment: flow cytometry on cells; E. coli MG1655 labelled with C5b-7, washed, 10 nM C8 and a concentration range of Cy5-labelled C9 for 30 min; geoMFI
[8] = biological target: C5b-8 (MAC precursor of C5b, C6, C7 and C8) assembled on E. coli (human) (UniProt P01031); experiment: flow cytometry on cells; E. coli MG1655 labelled with C5b-7 (10% C8-depleted serum, 30 min), washed, 10 nM C8 for 15 min, then 20 nM Cy5-labelled C9 for 30 min, no DTT; RPMI + 0.05% HSA; geoMFI

Chain of wildtype C9 (C9wt) (P02748 22-559): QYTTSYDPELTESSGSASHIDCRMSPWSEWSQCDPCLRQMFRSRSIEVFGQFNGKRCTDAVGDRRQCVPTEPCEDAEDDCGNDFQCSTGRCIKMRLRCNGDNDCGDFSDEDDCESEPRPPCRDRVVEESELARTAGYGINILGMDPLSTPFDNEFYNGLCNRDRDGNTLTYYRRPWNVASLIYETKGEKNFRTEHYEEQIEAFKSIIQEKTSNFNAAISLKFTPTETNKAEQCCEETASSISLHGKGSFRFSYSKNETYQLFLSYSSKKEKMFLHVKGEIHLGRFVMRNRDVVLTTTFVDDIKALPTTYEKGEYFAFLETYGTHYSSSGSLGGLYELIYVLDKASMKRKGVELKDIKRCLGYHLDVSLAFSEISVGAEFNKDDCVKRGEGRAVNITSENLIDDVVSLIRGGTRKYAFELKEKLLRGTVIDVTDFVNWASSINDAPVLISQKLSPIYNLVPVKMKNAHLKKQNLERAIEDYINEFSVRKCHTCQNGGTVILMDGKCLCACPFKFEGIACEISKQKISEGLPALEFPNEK

fold lower polymeric-C9 detection against C9wt with DTT [1] [fold] | fold binding with DTT against C9 (TMH-1 lock) without DTT [4] [fold] | fold lower binding against C9wt with DTT [4] [fold] | fold binding against C9 (TMH-1 lock), on 552059.1 with up to 10-fold more C9 [5] [fold] | fold binding against C9 (TMH-1 lock), on CGSC7740 wbbL+ [5] [fold] | fold binding against C9 (TMH-1 lock) [6] [fold] | fold binding against C9 (TMH-1 lock), on CGSC7740 wildtype [6] [fold] | fold binding against C9 (TMH-1 lock) [7] [fold] | fold binding against C9 (TMH-1 lock) [8] [fold] | Substance | bacterial viability (CFU) of C5b-8 labelled E. coli MG1655 with 100 nM C9, decrease compared to C5b-8 alone [2] [fold] | bacterial viability (CFU) of E. coli MG1655 in 3% C9-depleted serum with 25 nM C9 after 30 min, against C9wt [3] [fold] | outer membrane damage (DiOC2) and inner membrane damage (Sytox) of E. coli MG1655 in 3% C9-depleted serum with 25 nM C9, delay against C9wt [3] [min]
2 to 3 | 3 | 2 to 3 | – | – | – | – | – | – | C9 TMH-1 lock mutant (C9_(TMH-1 lock), F262C V405C) (from UniProt P02748 22-559) (natural protein) | 10 | 1000 | 30
– | – | – | 2 to 3 | 2.5 | 5 to 15 | 12 | < 10 | 10 | wildtype C9 (C9wt) (from UniProt P02748 22-559) (natural protein) | – | – | –

From paper PMC8604303
